Source: US20250129404A1, “RAPID, COLORIMETRIC ASSAY TO DETECT ACETYLTRANSFERASE ACTIVITY IN BIOLOGICAL SAMPLES” (THE FEINSTEIN INSTITUTES FOR MEDICAL RESEARCH, priority 2023, published 2025)

T1: recombinant human ChAT (rChAT) (Homo sapiens, UniProt P28329)
T1 construct: recombinant human ChAT corresponding to residue 119-748; His tag (N-histidine tag) (N); made in house; host or cells: E. coli BL21-Gold (DE3)
T1 sequence (P28329 119-748): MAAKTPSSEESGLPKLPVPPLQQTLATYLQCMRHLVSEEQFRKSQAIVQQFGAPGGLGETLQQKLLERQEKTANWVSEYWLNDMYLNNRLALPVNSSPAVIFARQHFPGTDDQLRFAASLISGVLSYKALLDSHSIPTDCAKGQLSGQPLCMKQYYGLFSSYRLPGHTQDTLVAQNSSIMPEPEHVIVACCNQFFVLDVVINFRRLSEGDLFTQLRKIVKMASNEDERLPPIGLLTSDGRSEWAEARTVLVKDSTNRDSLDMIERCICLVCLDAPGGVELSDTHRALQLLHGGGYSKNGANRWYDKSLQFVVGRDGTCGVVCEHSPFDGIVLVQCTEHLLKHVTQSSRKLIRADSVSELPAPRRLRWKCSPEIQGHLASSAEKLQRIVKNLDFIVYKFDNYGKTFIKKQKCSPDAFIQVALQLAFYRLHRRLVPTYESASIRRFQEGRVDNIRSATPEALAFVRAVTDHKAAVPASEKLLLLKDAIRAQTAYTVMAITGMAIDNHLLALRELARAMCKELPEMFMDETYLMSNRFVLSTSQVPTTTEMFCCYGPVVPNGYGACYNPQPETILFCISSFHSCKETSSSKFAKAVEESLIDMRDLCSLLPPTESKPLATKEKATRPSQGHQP

T2: recombinant human ChAT (rChAT), substrate choline (Homo sapiens, UniProt P28329)
T2 construct: recombinant human ChAT corresponding to residue 119-748; His tag (N-histidine tag) (N); made in house; host or cells: E. coli BL21-Gold (DE3)
T2 sequence (P28329 119-748): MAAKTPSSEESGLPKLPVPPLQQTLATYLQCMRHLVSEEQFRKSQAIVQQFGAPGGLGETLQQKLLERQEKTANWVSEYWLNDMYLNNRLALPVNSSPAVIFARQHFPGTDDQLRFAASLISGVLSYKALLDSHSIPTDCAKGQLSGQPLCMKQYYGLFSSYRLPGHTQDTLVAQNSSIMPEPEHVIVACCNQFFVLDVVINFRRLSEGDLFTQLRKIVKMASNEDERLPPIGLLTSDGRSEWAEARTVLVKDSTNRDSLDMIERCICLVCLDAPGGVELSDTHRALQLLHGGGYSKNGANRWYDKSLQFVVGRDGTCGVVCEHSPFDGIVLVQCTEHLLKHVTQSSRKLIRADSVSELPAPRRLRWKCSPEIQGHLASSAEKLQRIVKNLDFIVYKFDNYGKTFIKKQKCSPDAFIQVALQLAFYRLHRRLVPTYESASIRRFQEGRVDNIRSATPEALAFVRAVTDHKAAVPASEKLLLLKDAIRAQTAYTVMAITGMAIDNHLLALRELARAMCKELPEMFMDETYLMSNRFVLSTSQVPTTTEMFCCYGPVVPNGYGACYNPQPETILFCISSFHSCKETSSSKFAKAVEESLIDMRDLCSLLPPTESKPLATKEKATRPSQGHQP


What was measured:
[1] = biological target: T1, recombinant human ChAT (rChAT); test: Choline acetyltransferase (ChAT) colorimetric activity assay; format: biochemical
Protocol: Recombinant ChAT protein and ChAT PEGylation. All recombinant ChAT (rChAT) protein used was produced as described previously (10). Briefly, recombinant human ChAT corresponding to residue 119-748 (EC2.3.1.6, UnitProt 28329-3) with a N-histidine tag was expressed in E. coli BL21-Gold (DE3) cells and purified using high affinity Ni-charged columns. The purified recombinant ChAT was dialyzed at 4° C. in buffer containing 0.2×PBS, 10% glycerol and 0.5 mM TCEP (tris(2-carboxyethyl) phosphine), and subjected to extensive Triton X-114 extraction to remove contaminating endotoxins. After purification, PEGylation was carried out using MS (PEG) 12 reagent to extend the plasma half-life of the enzyme (10). Following PEGylation, the protein was dialyzed in buffer and once again extracted with Triton-X-114 to remove contaminating endotoxins. A Bradford protein assay (Bio-Rad) was used to determine rChAT protein concentration. Commercial recombinant ChAT protein was purchased from My BioSource.
Choline Acetyltransferase activity assay. An assay was developed to measure ChAT activity using an adapted version of the colorimetric assay (Reactions 1-3) (13).
Briefly, biological samples and choline chloride standards are diluted in assay buffer (containing 10 mM Tris-HCl, 150 mM NaCl, 1 mM EDTA, and 0.05% Triton X-100). 100 μl of each standard and 40 μl of each sample are added in triplicate to a 96-well plate. […] The assay is developed by addition of 150 μL of 3′3′5′5′ Tetramethylbenzidine (TMB) to all wells, and the plate is immediately analyzed spectrophotometrically at 650 nm. ChAT Activity is determined from the interpolated amount of choline depleted during the reaction, divided by the reaction time and sample volume, and multiplied by the sample dilution factor (Equation 1). In all biological samples, ChAT activity is normalized to total protein concentration, measured using Bradford protein assay (Bio-Rad) and is represented as nmol/min/mg of total protein. […]

[2] = system: TNF; test: Acute endotoxemia (LPS), TNF by ELISA; format: in vivo, mouse; settings: 1 mg/kg i.p. 30 min prior to 0.3 mg/kg LPS, 90 min after LPS
Protocol: Endotoxemia. Lipopolysaccharide (LPS, Escherichia coli 0111: B4; Sigma) was sonicated for 30 min, vortexed and administered intraperitoneally (LD50 7 mg/kg). Animals were euthanized by CO2 asphyxiation 90 min post-LPS administration and blood was collected by cardiac puncture using heparinized syringes. Blood samples were kept on ice and centrifuged for 10 minutes at 5000 g. Plasma TNF levels were quantified using a commercially available ELISA (Invitrogen). Plasma total protein concentration was determined using a Bradford Protein Assay (Bio-Rad). Sepsis scores were determined at respective timepoints up to 72 hours following endotoxin administration as described previously (19), where a maximum score of 28 per mouse denotes the greatest clinical sickness score.
Administration of PEG-ChAT and Anti-ChAT Neutralizing Antibody. Pegylated recombinant ChAT protein or a custom made monoclonal anti-ChAT antibody (GenScript) was administered intraperitoneally at a 1 mg/kg dose 30 minutes prior to LPS administration. Acute endotoxemia was induced with a dose of 0.3 mg/kg LPS. Animals were returned to their home cages and euthanized 90 minutes after LPS administration.

[3] = system: DSS-induced experimental colitis in C57Bl/6 male mice; test: DSS colitis model; format: in vivo, mouse; settings: for histological damage (inflammation severity, crypt damage, extent of inflammation): blinded H&E scoring, day 14 (FIG. 4E-F)
Protocol: DSS Colitis Model. DSS (DSS salt, colitis grade (MW: 36000-50000), MP Biomedicals, CA) was added to the drinking water in a final concentration of 3% (wt/vol) for 7 days. The water was changed to regular water on day 8 and maintained till the end of the experiment. Survival and the disease activity index (DAI) were evaluated daily in a blinded manner. On day 14, mice were euthanized under CO2 asphyxiation and blood and tissue were collected. Colons were removed, cleaned, and sectioned longitudinally. The luminal contents were removed with cold phosphate buffered saline (PBS). Starting from the most distal end (rectum) the colon was rolled with luminal side facing upward, resulting in a “Swiss roll” with the distal end in the center and the proximal colon in the outer side of the roll. The Swiss roll was held together with a small pin and placed in 10% buffered formalin overnight at 4° C. The fixed tissue was then embedded in paraffin, sectioned at 10 μm and stained with hematoxylin and eosin. Histological analysis was carried out in a blinded manner by three independent researchers. The degree of colon inflammation was scored under the light microscope (Zeiss, Germany) using the following criteria: inflammation severity (0—none; 1—mild; 2—moderate; 3—severe), inflammation extent (0—none; 1—mucosal; 2—mucosal and submucosal; 3—transmural), Crypt damage (0—none; 1—basal, ⅓ damaged; 2—basal, ⅔/damaged; 3—crypt loss), damage distribution (0-0%; […]; 3-51-75%; 4-76-100%). Each mouse tissue was scored over 6 different sites of the colon. Serum cytokine levels (IL-6, TNFα and MCP-1) were analyzed using mouse V-Plex Biomarker Group 1 array, and the assay was performed according to the manufacturer's instructions.

[4] = biological target: T2, recombinant human ChAT (rChAT), substrate choline; test: Michaelis-Menten kinetic constants, Coenzyme A detection assay; format: biochemical; settings: rChAT 2 μg/mL; Michaelis-Menten / Lineweaver Burke (FIG. 7C-D)
Protocol: Determination of Michaelis-Menten kinetic constants. To determine the Km constants for rChAT samples, a previously published Coenzyme A detection assay was used (12). Briefly, Coenzyme A standard was diluted in assay buffer. 100 μl of each standard and 40 μl of each sample was added to the 96-well plate in triplicate. 60 μl of Cocktail A was added to all sample wells. Immediately, 50 μl of Cocktail B was added to all sample and standard wells. The plate was immediately quantitated spectrophotometrically at 324 nm every 30 seconds for 30 minutes. Enzyme velocity was quantified as CoA formed (nmol/min/ml).
Data analysis and statistics. Data were analyzed using Graphpad Prism 9.0 software using two-tailed unpaired […] for comparisons between 2 groups or two-way ANOVA or mixed-effects model followed with Šídák's multiple comparisons test for comparisons of 3 or more groups. Michaelis Menten kinetic constants were determined using the Michaelis-Menten approximation to calculate Km and Vmax from a velocity vs. substrate relationship. Correlation coefficients were calculated using a nonparametric Spearman Correlation. For all analyses, P≤0.05 was considered statistically significant.

[5] = system: hypertensive animals; settings: background statement; cited from earlier work

Molecule	IC50 ([1]; preincubation of 0.4 mg/mL rChAT with inhibitor, room temperature 30 minutes (FIG. 7E)) [nM]	serum TNF vs vehicle [2]	spleen TNF vs vehicle [2]	serum TNF vs vehicle ([2]; listed as PEG-ChAT antibody)	disease activity index (DAI) vs vehicle ([3]; 1 mg/kg i.p. twice daily from day 7, from day 9 (FIG. 4C))	severity of colitis ([3]; 1 mg/kg i.p. twice daily from day 7 to day 14)	weight loss vs vehicle ([3]; 1 mg/kg i.p. twice daily from day 7 to day 14 (FIG. 4B))	histological damage (inflammation severity, crypt damage, extent of inflammation) [3]	colon length ([3]; day 14 (FIG. 4D))	circulating IL-6 vs vehicle ([3]; serum, day 14 (FIG. 5A))	circulating TNF vs vehicle ([3]; serum, day 14 (FIG. 5B))	circulating MCP-1 vs vehicle ([3]; serum, day 14 (FIG. 5C))	detected activity after thermal denaturing, in comparison to native preparation ([1]; 70° C. for 30 minutes (FIG. 7F), P<0.01)	enzymatic activity compared to a commercially available ChAT ([1]; FIG. 7B, P<0.01)	Vmax [4]	blood pressure [5]
C[N+](C)(C)CCC(=O)c1cccc2ccccc12 [alpha-NETA, reference compound]	148															
PEG-ChAT: recombinant ChAT PEGylated using MS (PEG) 12 reagent (conjugate, UniProt P28329 1-748, looked up, PEGylated with MS(PEG)12, recombinant ChAT PEGylated using MS (PEG) 12 reagent) Choline O-acetyltransferase: MGLRTAKKRGLGGGGKWKREEGGGTRGRREVRPACFLQSGGRGDPGDVGGPAGNPGCSPHPRAATRPPPLPAHTPAHTPEWCGAASAEAAEPRRAGPHLCIPAPGLTKTPILEKVPRKMAAKTPSSEESGLPKLPVPPLQQTLATYLQCMRHLVSEEQFRKSQAIVQQFGAPGGLGETLQQKLLERQEKTANWVSEYWLNDMYLNNRLALPVNSSPAVIFARQHFPGTDDQLRFAASLISGVLSYKALLDSHSIPTDCAKGQLSGQPLCMKQYYGLFSSYRLPGHTQDTLVAQNSSIMPEPEHVIVACCNQFFVLDVVINFRRLSEGDLFTQLRKIVKMASNEDERLPPIGLLTSDGRSEWAEARTVLVKDSTNRDSLDMIERCICLVCLDAPGGVELSDTHRALQLLHGGGYSKNGANRWYDKSLQFVVGRDGTCGVVCEHSPFDGIVLVQCTEHLLKHVTQSSRKLIRADSVSELPAPRRLRWKCSPEIQGHLASSAEKLQRIVKNLDFIVYKFDNYGKTFIKKQKCSPDAFIQVALQLAFYRLHRRLVPTYESASIRRFQEGRVDNIRSATPEALAFVRAVTDHKAAVPASEKLLLLKDAIRAQTAYTVMAITGMAIDNHLLALRELARAMCKELPEMFMDETYLMSNRFVLSTSQVPTTTEMFCCYGPVVPNGYGACYNPQPETILFCISSFHSCKETSSSKFAKAVEESLIDMRDLCSLLPPTESKPLATKEKATRPSQGHQP		significantly attenuates	decrease	significantly ameliorated	significant reduction	significantly reduces	significant reduction	attenuates	significantly improves	significantly reduced	significantly reduced	significantly reduced				
rChAT: recombinant human ChAT residue 119-748 with N-histidine tag, expressed in E. coli (protein, UniProt P28329 1-748, looked up) Choline O-acetyltransferase: MGLRTAKKRGLGGGGKWKREEGGGTRGRREVRPACFLQSGGRGDPGDVGGPAGNPGCSPHPRAATRPPPLPAHTPAHTPEWCGAASAEAAEPRRAGPHLCIPAPGLTKTPILEKVPRKMAAKTPSSEESGLPKLPVPPLQQTLATYLQCMRHLVSEEQFRKSQAIVQQFGAPGGLGETLQQKLLERQEKTANWVSEYWLNDMYLNNRLALPVNSSPAVIFARQHFPGTDDQLRFAASLISGVLSYKALLDSHSIPTDCAKGQLSGQPLCMKQYYGLFSSYRLPGHTQDTLVAQNSSIMPEPEHVIVACCNQFFVLDVVINFRRLSEGDLFTQLRKIVKMASNEDERLPPIGLLTSDGRSEWAEARTVLVKDSTNRDSLDMIERCICLVCLDAPGGVELSDTHRALQLLHGGGYSKNGANRWYDKSLQFVVGRDGTCGVVCEHSPFDGIVLVQCTEHLLKHVTQSSRKLIRADSVSELPAPRRLRWKCSPEIQGHLASSAEKLQRIVKNLDFIVYKFDNYGKTFIKKQKCSPDAFIQVALQLAFYRLHRRLVPTYESASIRRFQEGRVDNIRSATPEALAFVRAVTDHKAAVPASEKLLLLKDAIRAQTAYTVMAITGMAIDNHLLALRELARAMCKELPEMFMDETYLMSNRFVLSTSQVPTTTEMFCCYGPVVPNGYGACYNPQPETILFCISSFHSCKETSSSKFAKAVEESLIDMRDLCSLLPPTESKPLATKEKATRPSQGHQP								reduced					significantly reduced	significant increase	0.05 Δ CoA (nmol/min)	normalizes
